Data as given in US20260102468A1, “COMPOSITIONS AND METHODS FOR MARCO INHIBITION AND IMPROVED DRUG DELIVERY” (BOARD OF REGENTS, THE UNIVERSITY OF TEXAS SYSTEM, priority 2022, published 2026).

T1: MARCO (Mus musculus, UniProt Q60754)
T1 construct: secretion signal peptide (N); host or cells: Expi293 cells
T1 sequence (Q60754 with tags, fused parts or gaps): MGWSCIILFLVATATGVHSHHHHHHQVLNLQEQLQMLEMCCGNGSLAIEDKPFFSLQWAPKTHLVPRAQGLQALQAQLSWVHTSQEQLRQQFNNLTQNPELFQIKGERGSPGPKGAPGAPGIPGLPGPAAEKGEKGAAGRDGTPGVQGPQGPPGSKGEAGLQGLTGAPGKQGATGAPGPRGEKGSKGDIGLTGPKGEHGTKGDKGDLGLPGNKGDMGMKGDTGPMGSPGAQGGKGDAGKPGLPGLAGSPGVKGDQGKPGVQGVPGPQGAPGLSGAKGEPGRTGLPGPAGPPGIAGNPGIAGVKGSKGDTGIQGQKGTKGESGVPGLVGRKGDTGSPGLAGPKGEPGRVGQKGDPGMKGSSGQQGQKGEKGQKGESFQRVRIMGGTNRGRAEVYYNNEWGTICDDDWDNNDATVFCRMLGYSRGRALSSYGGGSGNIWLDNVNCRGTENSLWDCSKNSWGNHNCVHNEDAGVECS

B1: SRCR: recombinant mouse MARCO protein scavenger receptor cysteine-rich (SRCR) domain, SEQ ID NO: 2 (protein)
chain: MGWSCIILFLVATATGVHSHHHHHHQRVRIMGGTNRGRAEVYYNNEWGTICDDDWDNNDATVFCRMLGYSRGRALSSYGGGSGNIWLDNVNCRGTENSLWDCSKNSWGNHNCVHNEDAGVECS
modifications: MARCO SRCR

Assays:
liver CD11b+ cells = test: Doxorubicin uptake by liver CD11b+ cells in treated mice (flow cytometry); format: in vivo; conditions: flow cytometry of digested liver cells
macrophages = test: Nanoparticle uptake (phagocytosis) by macrophages after MARCO knockdown or blockade; format: cell-based, mouse; conditions: with or without incubation with recombinant MARCO protein
Experimental: The effect of MARCO expression on nanoparticle uptake by macrophages in vitro was tested. […] On day 5 following macrophage collection and culture, the siRNAs were mixed with the DharmaFECT 4 transfection reagent (Horizon, T-2004-02) at a final concentration of 100 nM, after which the cells were incubated with the siRNA for 48 hours. The siRNAs used in this study were as follows: Control siRNA (Cell Signaling Technology, 6568S) and Marco siRNA (Millipore Sigma, SASI_Mm01_00200135, SASI_Mm02_00319301).
Scale bar=50 μm. White arrows indicate cells that have taken up nanoparticles. […] Unpaired t-test.
For the nanoparticle phagocytosis assay, cells were plated in Costar 24-well Clear Flat Bottom Ultra-Low Attachment Multiple Well Plates (Corning, 3473) at a density of 10^5 cells/well. Nanoparticles or drug were added to the wells at the following concentrations: nanoparticles, 10^2-10^4/cell; Abraxane, 1 μg/mL; doxorubicin (Doxil), 20 μg/mL. Plates were then transferred to a cell culture incubator, and 2 hours later the cells were collected and washed followed by fixation with 4% paraformaldehyde. The cells were stained with fluorescence-labeled antibodies and analyzed by flow cytometry. The mean fluorescence intensity or the percentage of fluorescence-positive cells was used to compare the uptake of nanoparticles or drug.

E0771 tumor cells [1] = test: E0771 breast cancer mouse model, DOXIL plus MARCO blockade; format: in vivo, mice; conditions: DOXIL 2 mg/kg + SRCR 0.3 mg/kg
Experimental: For this study, one million E0771 tumor cells were implanted in young female C57BL6 mice (aged 6 weeks old). Tumor growth was measured every 3 days with calipers. Tumor volume was calculated as: Volume=0.5×Length× Width^2. When tumor volume reached around 60-80 mm^3 the treatment was started. The mice were treated with Doxil (DOXIL®, 2 mg/kg) or DOXIL® plus MARCO blockade agent (MARCO recombinant protein, SRCR domain, 0.3 mg/kg). 0.9% sodium chloride was used as a control. All agents were injected intravenously 2 times each week for a total of 5 treatments. FIGS. 9A and 33A-33B show growth curves for the E0771 mice treated by DOXIL® or DOXIL® plus MARCO blockade. n=5-6 mice in each treatment arm. Un-paired t-test was used to compare tumor volumes at day 18. […] FIGS. 33C-33D show survival curves of young and old mice bearing E0771 tumors in the groups treated with Doxil (DOXIL®, 2 mg/kg) or DOXIL® plus MARCO blockade agent (MARCO recombinant protein, SRCR domain, 0.3 mg/kg).
Control vs. MARCO or Doxil vs. DoxM were compared with unpaired/tests. Error bars are means±S.E.M. The present inventors used the same experimental setup with the breast E0771 tumor model and treatment doses as the young animals (DOXIL®, 2 mg/kg, and/or MARCO protein scavenger receptor cysteine-rich (SRCR) domain, 0.3 mg/kg).

[2] = set-up: species or system mice; conditions: mouse, in vivo, iv
Experimental: Anti-MARCO, monoclonal MARCO antibody, clone ED31, 2.5 mg/kg; rMARCO, recombinant MARCO protein SRCR domain, 0.3 mg/kg; NP, 100 nm nanoparticles, 10^11 particles injected through tail vain. n=3 mice for each treatment group at each time point. One way ANOVA with correction for multiple comparison was used to compare the difference between NP and other treatment groups. Error bars are means±SD.
Blockade of MARCO-nanoparticle interaction decreased nanoparticle uptake by liver in mice. Two strategies for blocking the MARCO-nanoparticle interaction were tested: with antibody to directly block the MARCO receptors on the cell or with recombinant MARCO protein to saturate the MARCO binding capacity of the particles. Young female C57BL6 background mice (aged 6 weeks) were intravenously injected with fluorescence-labelled 100 nm PEGylated polystyrene nanoparticles (NP, 10^11 particles per 20 g of body weight) with or without recombinant MARCO protein (SRCR domain, 0.3 mg/kg). Liver IVIS imaging was done 4 h after the injection. […] Unpaired t-test.

MARCO = target: T1, MARCO; test: Binding of nanoparticles with additional MARCO after saturation; conditions: pre-incubation with saturation doses of SRCR or ECD
Experimental: (§1) Consistent with a previous report (Brannstrom, A., et al. 2002. Biochem Biophys Res Commun 290, 1462-1469), the SRCR^R→A and SRCR^Δ mutations of MARCO were not expressed. […] Next, the binding capacity of MARCO to particles and nanomedicine was tested. Centrifugal filters were used to isolate unbound MARCO after incubating the SRCR (0.1 mg/mL) with different concentrations of nanoparticles. The MARCO recombinant proteins (0.1 mg/mL SRCR, 0.5 mg/mL ECD, or 0.4 mg/mL ECD^Δ) were incubated with nab-paclitaxel (5 mg/mL, paclitaxel concentration). After 15 min at room temperature with gentle shaking, the mixture was further incubated with the Dynabeads His-Tag isolation and Pulldown (ThermoFisher, Cat. #10103D). After magnetic separation and three washes with PBS, the beads were boiled in western blot sample buffer for subsequent western blotting. Primary antibodies used for western blots were albumin, CST, Cat. #4929, 1:1000; and His-Tag, CST, Cat. #2365, 1:1000. To test the binding capacity of MARCO, 0.1 mg/mL of SRCR was incubated for 15 min at room temperature with different concentrations of nab-paclitaxel or nanoparticles. The mixture was centrifuged through a 30-kDa cutoff filter (Millipore, UFC903096) at 1000 g for 30 minutes. The unbound SRCR in the lower part of the tube was examined by western blotting. […]

nab-paclitaxel = test: Pull-down of nab-paclitaxel by recombinant MARCO proteins (Western blot of albumin); format: binding; conditions: 0.1 mg/mL SRCR, 0.5 mg/mL ECD or 0.4 mg/mL ECD^Δ with nab-paclitaxel 5 mg/mL, His-tag pulldown
Experimental: as §1

E0771 tumor cells [3] = test: E0771 breast cancer mouse model, ABRAXANE plus MARCO blockade; format: in vivo, mice
Experimental: For this study, one million E0771 tumor cells were implanted in young female C57BL6 mice (aged 6 weeks old). Tumor growth was measured every 3 days with calipers. Tumor volume was calculated as: Volume=0.5×Length×Width^2. When tumor volume reached around 60-80 mm^3 the treatment was started. The mice were treated with paclitaxel-protein particles (ABRAXANE®, 20 mg/kg) or ABRAXANE® plus MARCO blockade agents (anti-MARCO antibody, 2.5 mg/kg; ECD (extracellular domain), MARCO protein extracellular domain, 1.5 mg/kg; SRCR, or MARCO protein scavenger receptor cysteine-rich (SRCR) domain, 0.3 mg/kg). IgG plus 0.9% sodium chloride was used as a control.
One-way analysis of variance with post hoc testing was used to compare tumor volumes at day 18 after treatment. Error bars are means±S.E.M. We used the same experimental setup with the breast E0771 tumor model and treatment doses as the young animals (ABRAXANE®, 20 mg/kg, and/or MARCO protein scavenger receptor cysteine-rich (SRCR) domain, 0.3 mg/kg).
To determine the specificity of the effects of recombinant MARCO protein blockade, additional control experiments in which mouse serum protein was used as an irrelevant protein control and the ECD^Δ as the minimal-binding MARCO control were performed.

Row | binding of nanoparticles with additional MARCO after saturation with recombinant MARCO (MARCO) | Molecule | doxorubicin uptake by liver CD11b+ cells, young versus old mice (liver CD11b+ cells) | nanoparticle uptake by macrophages with recombinant MARCO protein (macrophages) | treatment outcome of Doxil, older mice (E0771 tumor cells [1]; C57BL6 aged 50 weeks) | relative doxorubicin concentrations in tumors (E0771 tumor cells [1]; Doxil fluorescence intensity per mg of tissue, IVIS) | number of nanoparticles in the liver [2] | binding with nab-paclitaxel (nab-paclitaxel) | treatment outcome of ABRAXANE, older mice (E0771 tumor cells [3]; C57BL6 aged 50 weeks, ABRAXANE 20 mg/kg, SRCR 0.3 mg/kg or anti-MARCO antibody, day 18) | efficacy of combination treatment at increased SRCR concentration (E0771 tumor cells [3]; nab-paclitaxel 20 mg/kg, SRCR 3 mg/kg vs 0.3 mg/kg) | therapeutic effect of ABRAXANE (tumor growth inhibition), young mice (E0771 tumor cells [3]; young (6 weeks) female C57BL6, ABRAXANE 20 mg/kg i.v., antibody 2.5, ECD 1.5, SRCR 0.3 mg/kg, day 18)
1 |  | COc1cccc2c1C(=O)c1c(O)c3c(c(O)c1C2=O)C[C@@](O)(C(=O)CO)C[C@@H]3O[C@H]1C[C@H](N)[C@H](O)[C@H](C)O1 [doxorubicin] | took up more doxorubicin than did the older mice |  |  |  |  |  |  |  | 
2 | could not bind with additional MARCO | B1 |  | decreased nanoparticle uptake by macrophages | does not enhance the treatment outcome of Doxil in older mice | increased the relative doxorubicin concentrations in tumors | significantly reduced the number of nanoparticles in the liver | could strongly bind with nab-paclitaxel | does not enhance the treatment outcome of abraxane in older mice | nor did further increasing the concentration of SRCR enhance the efficacy of combination treatment | enhanced the inhibition of tumor growth in young mice treated with nab-paclitaxel
